What was measured:
[1] = NADH/NADPH production assay, oxidation of 4-octanol by secondary alcohol dehydrogenases; type: biochemical; settings: 30° C.; for oxidation of 4-octanol as measured by NADPH production: in the presence of NADP+, FIG. 30B
Description: […] consumption and production assays were performed using a THERMOmax microplate reader in the kinetic mode, monitoring the NADPH absorbance peak at 340 nm until the reaction reached equilibrium. […] These reaction conditions are found in Table 4 below.

[2] = NADPH dependent DEHU hydrogenation assay (DEHU hydrogenase); type: biochemical; settings: E. coli cell lysate containing each ADH; NADPH consumption at 340 nm for 30 min; FIG. 7A
Description: (§1) To identify DEHU hydrogenase, a NADPH dependent DEHU hydrogenation assay was performed. 20 μl of prepared cell lysate containing each ADH was added to 160 μl of 20-fold deluted DEHU solution prepared in the above section. 20 μl of 2.5 mg/ml of NADPH solution (20 mM Tris-HCl, pH 8.0) was added to initiate the hydrogenation reaction, as a preliminary study using cell Lysate of A. tumefaciens C58 have shown that DEHU hydrogenation requires NADPH as a co-factor. The consumption of NADPH was monitored an absorbance at 340 nm for 30 min using the kinetic mode of ThermoMAX 96 well plate reader (Molecular Devises). E. coli cell lysate containing alcohol dehydrogenase (ADH) 10 lacking a portion of N-terminal domain was used in a control reaction mixture.

[3] = NADPH dependent D-mannuronate hydrogenation assay (D-mannuronate hydrogenase); type: biochemical; settings: E. coli cell lysate containing each ADH; NADPH consumption at 340 nm for 30 min; FIG. 7B
Description: as §1, with “D-mannuronate” for “DEHU”, “D-mannuronate” for “20-fold deluted DEHU”, “reaction.” for “reaction, as a preliminary study using cell Lysate of A. tumefaciens C58 have shown that DEHU hydrogenation requires NADPH as a co-factor.”

[4] = In vitro pyruvate formation from alginate with purified enzymes; settings: ~5 ug purified enzyme with Atu3025, UxuA, KdgK, KdgA; 1% alginate or ~0.5% mannuronate; over night; FIG. 6B, 6C
Description: The reaction mixture contained 1% alginate or ˜0.5% mannuronate, ˜5 ug of purified Atu3026 (ADH12) or Atu3027 (ADH11), and ˜5 ug of purified oligoalginate lyase (Atu3025), UxuA, KdgK, and KdgA, 2 mM of ATP, and 0.6 mM of NADPH in 20 mM Tris-HCl pH7.0. The reaction was carried out over night and the pyruvate formation was monitored by the pyruvate assay kit (BioVision, Inc).

Row | Molecule | oxidation of 4-octanol as measured by NADPH production [1] | mannuronate hydrogenase activity [3] | further results
1 | 2ADH-5: secondary alcohol dehydrogenase isolated from Pseudomonas putida KT2440, SEQ ID NO: 118 (protein, Pseudomonas putida KT2440) MSKQLTLEGKVALVQGGSRGIGAAIVRRLAREGAQVAFTYVSSAGPAEELAREITENGGKALALRADSADAAAVQLAVDDTEKALGRLDILVNNAGVLAVAPVTEFDLADFDHMLAVNVRSVFVASQAAARYMGQGGRIINIGSTNAERMPFAGGAPYAMSKSALVGLTRGMARDLGPQGITVNNVQPGPVDTDMNPASGEFAESLIPLMAIGRYGEPEEIASFVAYLAGPEAGYITGASLTVDGGFAA | catalyze the oxidation of 4-octanol |  | 
2 | 2ADH-2: secondary alcohol dehydrogenase isolated from Pseudomonas putida KT2440, SEQ ID NO: 112 (protein, Pseudomonas putida KT2440) MSMTFSGQVALVTGAGAGIGRATALAFAHEGMKVVVADLDPVGGEATVAQIHAAGGEALFIACDVTRDAEVRQLHERLMAAYGRLDYAFNNAGIEIEQHRLAEGSEAEFDAIMGVNVKGVWLCMKYQLPLLLAQGGGAIVNTASVAGLGAAPKMSIYSASKHAVIGLTKSAAIEYAKKGIRVNAVCPAVIDTDMFRRAYQADPRKAEFAAAMHPVGRIGKVEEIASAVLYLCSDGAAFTTGHCLTVDGGATAI |  |  | oxidation of 4-octanol as measured by NADH production ([1]; in the presence of NAD+, FIG. 30A): catalyzes the oxidation of 4-octanol
3 | 2ADH-10: secondary alcohol dehydrogenase isolated from Pseudomonas putida KT2440, SEQ ID NO: 128 (protein, Pseudomonas putida KT2440) MSKTHLFDLDGKIAFVSGASRGIGEAIAHLLAQQGAHVIVSSRKLDGCQQVADAIIAAGGKATAVACHIGELEQIQQVFAGIREQFGRLDVLVNNAATNPQFCNVLDTDPGAFQKTVDVNIRGYFFMSVEAGKLMRENGGGSIINVASINGVSPGLFQGIYSVTKAAVINMTKVFAKECAPFGIRCNALLPGLTDTKFASALVKNEAILNAALQQIPLKRVADPKEMAGAVLYLASDASSYTTGTTLNVDGGFLS | catalyze the oxidation of 4-octanol |  | 
4 | ADH1: alcohol dehydrogenase isolated from Agrobacterium tumefaciens C58, polypeptide SEQ ID NO: 70 (protein, Agrobacterium tumefaciens C58) MFTTSAYACDDGSSPMKLATIRRRDPGPRDVEIEIEFCGVCHSDIHTARSEWPGSLYPCVPGHEIVGRVGRVGAQVTRFKTGDRVGVGCIVDSCRECASCAEGLEQYCENGMTGTYNSPDKAMGGGAHTLGGYSAHVVVDDRYVLNIPEGLDPAAAAPLLCAGITTYSPLRHWNAGPGKRVGVVGLGGLGHMAVKLANAMGATVVMITTSPGKAEDAKKLGAHEVIISRDAEQMKKATSSLDLIIDAVAADHDIDAYLALLKRDGALVQVGAPEKPLSVMAFSLIPGRKTFAGSMIGGIPETQEMLDFCAEKGIAGEIEMIDIDQINDAYERMIKSDVRYRFVIDMKSLPRQKAA |  |  | DEHU hydrogenase activity [2]: significant DEHU hydrogenase activity
5 | ADH9: alcohol dehydrogenase isolated from Agrobacterium tumefaciens C58, polypeptide SEQ ID NO: 86 (protein, Agrobacterium tumefaciens C58) MKAIVAHGAKDVRIEDRPEEKPGPGEVRLRLARGGICGSDLHYYNHGGFGAVRLREPMVLGHEVSAVIEELGEGVEGLKIGGLVAVSPSRPCRTCRFCQEGLHNQCLNMRFYGSAMPFPHIQGAFREILVADALQCVPADGLSAGEAAMAEPLAVTLHATRRAGDLLGKRVLVTGCGPIGILSILAARRAGAAEIVATDLSDFTLGKAREAGADRVINSKDEPDALAAYGANKGTFDILYECSGAAVALAGGITALRPRGIIVQLGLGGDMSLPMMAITAKELDLRGSFRFHEEFATGVELMRKGLIDVKPFITQTVDLADAISAFEFASDRSRAMKVQIAFS |  | significant mannuronate hydrogenase activity | 
6 | ADH3: alcohol dehydrogenase isolated from Agrobacterium tumefaciens C58, polypeptide SEQ ID NO: 74 (protein, Agrobacterium tumefaciens C58) MTKTMKAAVVRAFGKPLTIEEVAIPDPGPGEILINYKATGVCHTDLHAATGDWPVKPNPPFIPGHEGAGYVAKIGAGVTGIKEGDRAGTPWLYTACGCCIPCRTGWETLCPSQKNSGYSVNGSFAEYGLADPKFVGRLPDNLDFGPAAPVLCAGVTVYKGLKETEVRPGEWVVISGIGGLGHMAVQYAKAMGMHVVAADIFDDKLALAKKLGADVVVNGRAPDAVEQVQKATGGVHGALVTAVSPKAMEQAYGFLRSKGTMALVGLPPGFISIPVFDTVLKRITVRGSIVGTRQDLEEALTFAGEGKVAAHFSWDKLENINDIFHRMEEGKIDGRIVVDLAA |  | significant mannuronate hydrogenase activity | 
7 | 2ADH-8: secondary alcohol dehydrogenase isolated from Pseudomonas putida KT2440, SEQ ID NO: 124 (protein, Pseudomonas putida KT2440) MSLQGKVALVTGASRGIGQAIALELGRQGATVIGTATSASGAERIAATLKEHGITGTGMELNVTSAESVEAVLAAIGEQFGAPAILVNNAGITRDNLMLRMKDDEWFDVIDTNLNSLYRLSKGVLRGMTKARWGRIISIGSVVGAMGNAGQANYAAAKAGLEGFSRALAREVGSRGITVNSVTPGFIDTDMTRELPEAQREALQTQIPLGRLGQADEIAKVVSFLASDGAAYVTGATVPVNGGMYM | catalyze the oxidation of 4-octanol |  | 
8 | ADH4: alcohol dehydrogenase isolated from Agrobacterium tumefaciens C58, polypeptide SEQ ID NO: 76 (protein, Agrobacterium tumefaciens C58) MTGANQPWEVQEVPVPKAEPGLVLVKIHASGMCYTDVWATQGAGGDIYPQTPGHEVVGEIIEVGAGVHTRKVGDRVGTTWVQSSCGRCSYCRQNRPLTGQTAMNCDSPRTTGFATQGGHAEYIAISAEGTVLLPDGLDYTDAAPMMCAGYTTWSGLRDAEPKPGDRIAVLGIGGLGHVAVQFSKALGFETIAITHSPDKHKLATDLGADIVVADGKELLEAGGADVLLVTTNDFDTAEKAMAGVRPDGRIVLCALDFSKPFSIPSDGKPFHMMRQRVVGSTHGGQHYLAEILDLAAKGKVKPIVETFALEQATEAYERLSTGKMRFRGVFLPHGA |  | significant mannuronate hydrogenase activity | 
9 | ADH2: alcohol dehydrogenase isolated from Agrobacterium tumefaciens C58, polypeptide SEQ ID NO: 72 (protein, Agrobacterium tumefaciens C58) MAIARGYAATDASKPLTPFTFERREPNDDDVVIDIKYAGICHSDIHTVRNEWHNAVYPIVPGHEIAGVVRAVGSKVTRFKVGDHVGVGCFVDSCVGCATRDVDNEQYMPGLVQTYNSVERDGKSATQGGYSDHIVVREDYVLSIPDNLPLDASAPLLCAGITLYSPLQHWNAGPGKKVAIVGMGGLGHMGVKIGSAMGADITVLSQTLSKKEDGLKLGAKEYYATSDASTFEKLAGTFDLILCTVSAEIDWNAYLNLLKVNGTMVLLGVPEHAIPVHAFSVIPARRSLAGSMIGSIKETQEMLDFCGKHDIVSEIETIGIKDVNEAYERVLKSDVRYRFVIDMASLDA |  |  | DEHU hydrogenase activity [2]: significant DEHU hydrogenase activity
10 | Atu3026: alcohol dehydrogenase isolated from Agrobacterium tumefaciens C58, polypeptide SEQ ID NO: 92 (protein, Agrobacterium tumefaciens C58) MQRFTNRTIVVAGAGRDIGRACAIRFAQEGANVVLTYNGAAEGAATAVAEIEKLGRSALAIKADLTNAAEVEAAISAAADKFGEIHGLVHVAGGLIARKTIAEMDEAFWHQVLDVNLTSLFLTAKTALPKMAKGGAIVTFSSQAGRDGGGPGALAYATSKGAVMTFTRGLAKEVGPKIRVNAVCPGMISTTFHDTFTKPEVRERVAGATSLKREGSSEDVAGLVAFLASDDAAYVTGACYDINGGVLFS |  |  | DEHU hydrogenase and mannuronate hydrogenase reactions in pyruvate formation from alginate [4]: capable of catalyzing both DEHU hydrogenase and mannuronate hydrogenase reactions
